According to patent US20110300138A1 (published 2011):
Where two headings read alike, the source gives them in different places.

Tests used:
Assay in all cases: cell-based or functional assay
[1] = biological target: human TSH receptor (full length, wild type) expressed in CHO cells (human) (UniProt P16473)
[2] = biological target: human TSHR (thyroid stimulating hormone receptor) expressed in transfected CHO cells (human) (UniProt P16473)
[3] = biological target: human TSHR (wild type, full length) expressed in CHO cells (human) (UniProt P16473)
[4] = biological target: human TSHR (wild type, full length) expressed in CHO cells (human) (UniProt P16473); remark: listed apart in the source
[5] = biological target: human TSH receptor (TSHR), wild type, expressed in CHO cells (human) (UniProt P16473)
[6] = biological target: human TSHR (wild type, full length) expressed in CHO cells (human) (UniProt P16473); remark: listed apart in the source

% Inhibition; T7 serum + 100 µg/mL 9D33 IgG [1]: 93%
% Inhibition; T8 serum + 100 µg/mL 9D33 IgG [1]: 95%
% Inhibition; T9 serum + 100 µg/mL 9D33 IgG [1]: 87.2%
Cyclic AMP concentration; 100 µg/mL 9D33 IgG alone [1]: 2.4 pmol/mL
Cyclic AMP concentration; HBD + 100 µg/mL 9D33 IgG [1]: 5.4 pmol/mL
Cyclic AMP concentration; T7 serum + 100 µg/mL 9D33 IgG [1]: 6.3 pmol/mL
Cyclic AMP concentration; T8 serum + 100 µg/mL 9D33 IgG [1]: 4.3 pmol/mL
Cyclic AMP concentration; T9 serum + 100 µg/mL 9D33 IgG [1]: 7.2 pmol/mL
% Inhibition; 3 ng/mL M22 IgG + 0.001 µg/mL 9D33 IgG [2]: 9%
% Inhibition; 3 ng/mL M22 IgG + 0.01 µg/mL 9D33 IgG [2]: 2%
% Inhibition; 3 ng/mL M22 IgG + 0.1 µg/mL 9D33 IgG [2]: 66%
% Inhibition; 3 ng/mL M22 IgG + 1 µg/mL 9D33 IgG [2]: 93%
% Inhibition; 3 ng/mL M22 IgG + 10 µg/mL 9D33 IgG [2]: 94%
% Inhibition; 3 ng/mL M22 IgG + 100 µg/mL 9D33 IgG [2]: 95%
Cyclic AMP concentration; 3 ng/mL M22 IgG + 0.001 µg/mL 9D33 IgG [2]: 19.4 pmol/mL
Cyclic AMP concentration; 3 ng/mL M22 IgG + 0.01 µg/mL 9D33 IgG [2]: 21 pmol/mL
Cyclic AMP concentration; 3 ng/mL M22 IgG + 0.1 µg/mL 9D33 IgG [2]: 7.19 pmol/mL
Cyclic AMP concentration; 3 ng/mL M22 IgG + 1 µg/mL 9D33 IgG [2]: 1.48 pmol/mL
Cyclic AMP concentration; 3 ng/mL M22 IgG + 10 µg/mL 9D33 IgG [2]: 1.2 pmol/mL
Cyclic AMP concentration; 3 ng/mL M22 IgG + 100 µg/mL 9D33 IgG [2]: 1.01 pmol/mL
Cyclic AMP concentration; 100 µg/mL 9D33 IgG [2]: 1.31 pmol/mL
% Inhibition of T13 serum stimulation; 100 µg/mL 9D33 IgG [3]: 92.2%
% Inhibition of T14 serum stimulation; 100 µg/mL 9D33 IgG [3]: 89.7%
% Inhibition of T15 serum stimulation; 100 µg/mL 9D33 IgG [3]: 92.4%
Cyclic AMP concentration; 100 µg/mL 9D33 IgG alone [3]: 2.3 pmol/mL
Cyclic AMP concentration; HBD + 100 µg/mL 9D33 IgG [3]: 3.3 pmol/mL
Cyclic AMP concentration; T13 serum + 100 µg/mL 9D33 IgG [3]: 3.8 pmol/mL
Cyclic AMP concentration; T14 serum + 100 µg/mL 9D33 IgG [3]: 2.8 pmol/mL
Cyclic AMP concentration; T15 serum + 100 µg/mL 9D33 IgG [3]: 3.9 pmol/mL
% Inhibition of T5 serum stimulation; 0.01 µg/mL 9D33 IgG [4]: 23%
% Inhibition of T5 serum stimulation; 0.1 µg/mL 9D33 IgG [4]: 55.7%
% Inhibition of T5 serum stimulation; 1 µg/mL 9D33 IgG [4]: 93.6%
% Inhibition of T5 serum stimulation; 10 µg/mL 9D33 IgG [4]: 96.4%
% Inhibition of T5 serum stimulation; 100 µg/mL 9D33 IgG [4]: 95.3%
Cyclic AMP concentration; 0.01 µg/mL 9D33 IgG + T5 [4]: 49.2 pmol/mL
Cyclic AMP concentration; 0.1 µg/mL 9D33 IgG + T5 [4]: 28.3 pmol/mL
Cyclic AMP concentration; 1 µg/mL 9D33 IgG + T5 [4]: 4.1 pmol/mL
Cyclic AMP concentration; 10 µg/mL 9D33 IgG + T5 [4]: 2.3 pmol/mL
Cyclic AMP concentration; 100 µg/mL 9D33 IgG + T5 [4]: 3 pmol/mL
Cyclic AMP concentration; 100 µg/mL 9D33 IgG alone [4]: 2.4 pmol/mL
% Inhibition of constitutive activity; 0.001 µg/mL 9D33 IgG [5]: 0%
% Inhibition of constitutive activity; 0.01 µg/mL 9D33 IgG [5]: 0%
% Inhibition of constitutive activity; 0.1 µg/mL 9D33 IgG [5]: 0%
% Inhibition of constitutive activity; 0.3 µg/mL 9D33 IgG [5]: 0%
% Inhibition of constitutive activity; 1 µg/mL 9D33 IgG [5]: 0%
% Inhibition of constitutive activity; 3 µg/mL 9D33 IgG [5]: 0%
% Inhibition of constitutive activity; 10 µg/mL 9D33 IgG [5]: 0%
% Inhibition of constitutive activity; 100 µg/mL 9D33 IgG [5]: 0%
Cyclic AMP concentration (constitutive activity); 0.001 µg/mL 9D33 IgG [5]: 18.8 pmol/mL
Cyclic AMP concentration (constitutive activity); 0.01 µg/mL 9D33 IgG [5]: 20.3 pmol/mL
Cyclic AMP concentration (constitutive activity); 0.1 µg/mL 9D33 IgG [5]: 23.9 pmol/mL
Cyclic AMP concentration (constitutive activity); 0.3 µg/mL 9D33 IgG [5]: 26.4 pmol/mL
Cyclic AMP concentration (constitutive activity); 1 µg/mL 9D33 IgG [5]: 35.5 pmol/mL
Cyclic AMP concentration (constitutive activity); 3 µg/mL 9D33 IgG [5]: 32.3 pmol/mL
Cyclic AMP concentration (constitutive activity); 10 µg/mL 9D33 IgG [5]: 34.3 pmol/mL
Cyclic AMP concentration (constitutive activity); 100 µg/mL 9D33 IgG [5]: 38 pmol/mL
% Inhibition of T8 serum stimulation; 0.01 µg/mL 9D33 IgG [6]: 12%
% Inhibition of T8 serum stimulation; 0.1 µg/mL 9D33 IgG [6]: 56%
% Inhibition of T8 serum stimulation; 1 µg/mL 9D33 IgG [6]: 91%
% Inhibition of T8 serum stimulation; 10 µg/mL 9D33 IgG [6]: 93%
% Inhibition of T8 serum stimulation; 100 µg/mL 9D33 IgG [6]: 93%
Cyclic AMP concentration; 0.01 µg/mL 9D33 IgG + T8 [6]: 45.8 pmol/mL
Cyclic AMP concentration; 0.1 µg/mL 9D33 IgG + T8 [6]: 22.9 pmol/mL
Cyclic AMP concentration; 1 µg/mL 9D33 IgG + T8 [6]: 4.7 pmol/mL
Cyclic AMP concentration; 10 µg/mL 9D33 IgG + T8 [6]: 3.7 pmol/mL
Cyclic AMP concentration; 100 µg/mL 9D33 IgG + T8 [6]: 3.6 pmol/mL
Substance: 9D33 IgG (antibody)
